Experiment: soluble fraction after stress (log2 fold change); higher = more stays soluble; pooled small domains, quantitative proteomics
Conditions: stress: pH 4
Procedure, shortened: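 High-throughput quantitative proteomics was run on pooled custom libraries of small protein domains following pH 4 stress. Fold changes are on a log2 scale; higher values mean more of a domain remained soluble. The fold change in soluble amount is taken as a measure of aggregation propensity.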

| Sequence | soluble fraction (log2) |
| --- | --- |
| HMIDSEEVMETIQDLGYSPVFDVKEKFYKIKEEQIGKITLEVHIILRYGMVDLVWIVRENGELLLG | -0.454 |
| HMATINGIEKYLSSGLIPGIGPHTAKKLVEKFGLDTLDIMQYNPDRLTEVEGIGDKKAAKISEAFQEQK | -0.191 |
| HMLDLYYDSEDKLLIDMGTGEVIRSFADDKRSLVFDAQAKILFDEDSGDIVYSSYFDKLITDKLASKS | -1.51 |
| HMAKIKVFELKNQINSLIKNKIESKDIIDFIETNFGVKKSHSSALEENEANFIKNYFVHADKA | -0.141 |
| HMQVTIGADLAEHAARLDVQISDVVKLIKSGVSEGEIKVGLTKLETRLAHPELALVENKLAYLKALIAES | -0.79 |
| HMNDREAAYEDLPDELVRVGQKVFIKSLETEGVIVQPPNKKGEVRVRSGNISTNVKRSDLGLPIEKP | 0.149 |
| HMQQPIPGEAYLTRRPGSDHFQIAFTIDGHRVRESSGTSDKVAAAALAQKRYEEVWREIKLGEK | -0.0232 |
| HMGEAYVVPNVKNKTLGEAQLALHNQKLEGLVVDSSYVKGLPDGMILDQNPAGGARVKEGRTIYLTITTS | -0.146 |
| HMDTNRIIGNKIYQLRRSINMTQQELAEKVGISVTFLSEIENGRKSMSVDTLIKLSKGLQVSLDTIVF | -0.831 |
| HMALALSGVDLNRNRLTISWQTSKGVSYRVQRSSDLQSWTDVGAERLGNGNRLSHTQALNTESAFLRVII | -0.674 |
| HMNIDKLVGSTGTVVRSVTPDTAGLVRVNDEDWRASAEEILYERDAIVVEGIEGVTLIVSKLS | -1.54 |
| HMYGLSFLIGFTVVDRTYGDIGKVTAIDDSTVNTLMAVGDRLIPAQEAFITKIDNTKKIIYTQLPEGLL | -0.512 |
| HMNPLSELSFEERRELFLEAAVRLFEEKGYKNTSVEDIAGELGFTKKVFYYYWKNKREIVQEIHDRGMA | -0.986 |
| HMPLSLESVSEGGRNDTAARIAGYLIAKGLNVDFARFFLQSWNTKNKPPLDDTEIDTIVNSIMKTHERKNQ | -0.476 |
| HMENRLREVRDEIATRHGILPTVFINDRVLMNIHSKKPKDVSQLWQVDGISDEFIMKYGPEFIAEYKKKAK | -0.59 |
| HMEDPFATLGVHREASLDEIKRAYRRLAMFWHPDRNPEAVAGTEFKRVHAAYELLLDPQRLAEWQQAQAT | -0.424 |
| HMGRNSTPKEPLKKFEVSPITEKEVRILDGRFGPYITDGATNVTVPKTITIEEITFERALDMLAEKAAKGP | -0.153 |
| HMGISGSDLEKMIRNILVNNTDVVETIKSGQDKKGKKQKFLQGLIMKEARGQTDPREAASLLAKLLE | 0.202 |
| HMNAMFEKVLAAVMGFIGVSAFAKNADGKSEMTSDQEKRLTDKWGSKFVEEFKNDLLEYEKNGNAAEDAV | -0.332 |
| HMNERIKSLRKALGLTQQEFADKLGISRGNIGAYEVGKNAPSDAVISLIVRIFNTNENWLRTGEGEM | -0.246 |
| HMQDTIDLVIQVNGKLRGQMNVPKDTDRATIEQLAINLENVQKIVAGNAIKKIIIVPGRLINIVVSKNL | -0.209 |
| HMSEKAQSENEDLIKILALLIHAAKIDENYSEKEKKLIISFAEMSSNKKLDREQINSLVDKAEQYEK | -0.507 |
| HMTIGPALAIGGNKVEMTQQGKIQVTNPQGKIKTLSQDEFKKQLVKNADKIEAGQDFEFKKD | 0.339 |
| HMGVEALTPRQREVLALMAQGRSNGWIAAELGLSEKAIVQHTSNIYDMLGLAVDADDHRRVLAVIHYLT | -0.943 |
| HMSLIDLLQLNRKSKKLTLMNLVEMTGLSYGKVYRIFNGGIDKPTPDSLKLLAKALQLDYSYLFHKAGYL | 0.266 |

| Sequence | soluble fraction (log2) |
| --- | --- |
| HMPSARELLATNIVRLRKEKGWSQEDLALEAGLHRTFVAHVERHARNISLDNIERLANALQVNVHILLL | -1.26 |
| HMASFTDAQALEVKDLYPDWSKIPEGTHLEAGQRVRYNGNLYKVRTGQAHDKQSTWTPTDAASLFEAID | 0.0558 |
| HMLSSNEIKEIFALFDKSNRGQVATSELGTLVRALNLNPTETEITDMQSKVDPKGQGSFTLDVLEKVVQD | -0.929 |
| HMEEKKYEVGDVVSFNYLYKNSFAEGKVSSLIHSGTITRIIDGRPAPYLINRGTGWLSNDLILT | -0.179 |
| HMSQNISSTKLIPENIKIGMSVFVIPLQQKGIVQSLPNRSKEVLVQIGNAKINVKINNLKLIED | -0.238 |
| HMLDQSYYETANEIISRYPLEEKSLIPIIQDIQATYRYLPPDLLDYVAKKIGITETKAYSVASFYENFSF | -1.09 |
| HMEMKMGHIISKLRYESGYSQVELAEKIGITKGAVGMYETDKRKPDYDTLIKLADLFNVSTDYLLS | -1.31 |
| HMLAKNDSGLNNHTFNAIRDALLEALADGPAEAKKLTENISFPSDKIITVIRFLADHDDRFSLEDGILSLT | -0.846 |
| HMVDIQTGQKVRIHTSQFAGKIGNITALNVKSAELPNGIRTATASILMQSNENVMLPVSNFDIIE | -0.044 |
| HMRQISDPTALASMVDKVIEDNPSAVADYRRGESKALGFLIGRVMQSSGGKANPKMIRGLLVKNLES | 0.371 |
| HMTIAEGLIFRFTEPFKPIDQYTYYIMGDNKVEQIPNFKTLEVMLAQRNQNYLSVRVIEKSQLDDILKEF | -1.73 |
| HMLDDDAGMIQAILRKAPGHYLPLHDKSDPASIQAQLGISKAQFKRAVGTLMKQGLIRQVKGDGLYLTQ | 0.125 |
| HMNQTGQYENAAKRFNQLITIDSSDKRAYLQLGISNYNLGNKEKADSLFNIIRNSKDKLLIEELDNFLT | -0.169 |
| HMSEFSDRFRLLKDESGATLKELSEQLDITVPNLSYYMKGREPSYDILIKIADYFGVTTDWLIGRTDER | -0.643 |
| HMIVVLKHGVTEQQMRNLIAWFKDQGVDVHVSRGIYQTVLGLVGDTSDIDVDLLRMLDIVDAVKRIT | -0.785 |
| HMSGENAVLTEGTMVTVRRGGETITATARKETVKQFLSRMDIIPGSREMVGIELMENSVMLTISD | -1.02 |
| HMWMQKILGNYIAARRKELGMTQANLAEKIHVTDKAVSRWERGVGLPDIENLEALAKALEVSLVSLMQGKT | 0.22 |
| HMRQQAFWALVPEERDVLDETGAPLFRIGPTAWALVIEDRGEVFVVRDEDGRVGYLHEVDGVTR | -1.94 |
| HMVINVNEIIRRIKELKTFKTDRQVADFLGVSKATVSNWMARNSIDFPLLINKLDGVDLTWLLTGRGTPE | -0.121 |
| HMAQISDEGLLRGLIVEMFEANPAVVEELLGGRDRKKGFVIGQIMKKTKGMANPALLDQLFYEELEKL | -1.31 |
| HMTAEVIYVDVGGEVNQPSVVELTDGSRVTDAIAAAGGLTEKADLTDINRAAFVSDGEKIFIPSQEE | -0.385 |
| HMEQQVDYTQFIQDVRQGQIREVDVDRNGVINGIKRSGENFVTVIPGGYDRDLINDLVKQGVNATGEL | 0.14 |
| HMSDEEAISKLPGVGPAILEKLKEAGYNDIMTIAVDSPKNLAELAEIGEPTAAKIIAAAKKAAD | -0.109 |
| HMPTQTEELRRRIVADVNAGEPGAKLGSERELAERYGTSRSSLRQVLAALQEAGLIDRVIGRSGGIFISH | 0.33 |
| HMVVEDDTVLQAVKQAIEENPEAVSDYFEGKSKALNFLVGQVMRITRGKADPAKTNQMVVEELKNR | 0.112 |

| Sequence | soluble fraction (log2) |
| --- | --- |
| HMFYPIAHTLTKLNIRSGPGEQYQKLATFENNHDLVVLTQQNEWVQVRGKSDEQVIIGWVHSSFLSPT | -1.33 |
| HMQENDLGAVEKIVDDVLHDPKNAQAVADFKAGSEKVLGFLTGQVMKASRGKANPSVVQEVLRQKLKN | -0.0461 |
| HMSVDIIPGKADQKVRLIHDPAIVGVTTGGVKTAGPHTLIQIELGPNERPYKRLSLLELIPEG | 0.00535 |
| HMSILSRREHEIMQWVKGGKTNIEIAQILGISARTVRNHLQNVFRKLDVINRAQAVFEVERRR | -0.639 |
| HMKSLLTHAEEFVRNNNGRWMLAETSSKESYSSKQNFYLRNNYSIISEIRDFYSVGDNLLVFGKFFT | -0.242 |
| HMAKSMRHLIVPSRETSLWRDKLSTNGWLSKGYGIHNLDDYRGIPLNETAPKIIEGLEITELEPIS | -0.755 |
| HMGRYATVPDVVGSTPEVARELIRSEGLRYVLSEETVYSDSDTGTVGRTDPESGTRMSADDEVVVYLS | -1.27 |
| HMTDAELDLLTPREQEVLQLIARGYLYKEIARRLGISVKTVEAHASSVLRKLQLSTRHELSHWAAQRH | -0.192 |
| HMEQLNKNIKFDNFLESLNFINKVSEVAEEENHHPDLKFGWGYADITIFTHAIKGLSEGDFVLAAKIDVI | -0.295 |
| HMTFAEADAQYEVIKQQYLAGALDEEQFDEQLHRLMVLDDGGLWWAKSRENGSWHYYDPDREDWIAATP | -0.995 |
| HMDLVIALNSRIRVIREPFFGKLGTVIDLPHKLHKMESGTMTRVAKIKFDDRTEEIIPRTNLEVILS | -0.35 |
| HMTRDGMTKEAFDSLLEDIMNILLDNGLKATTMGSIAKSLKMSKRTLYEIFSSKSQMVEEAIIASHTKMM | -0.00738 |
| HMEHGQWLSEAQGASLAADWLARRRGVLPLNARRHLSGLSDQIARQIEGGLSREAGLYTAHEMMESLDP | -0.217 |
| HMAESSLPKMPRDESKYIYHSVQPGETVYSLSKRYSVSESDIVKSNPGIDITKLSLGLEVAIPRI | 0.0402 |
| HMYHADLIGLRVETAAGEKLGTVKAVHNFGAGDVIEITGAEDKDGLMVPFTAEVVPEVDIENGRIVVS | -0.868 |
| HMATIGVGSKVTLTTYVDWVGNGLLKTRDFYFVSELNGKRAVLRADSMNGAIYAAVNIDNLRI | -0.103 |
| HMSDNYYSILGIETDATTDMIKRAYRRLSLELHPDRTKDNPILTEKYKKVNEAYGVLNDNDRKHIYDLQNI | -1.37 |
| HMIDSDENERIKELIKALISETLKSRGVSPEVISDIKERVDRLHNEELPRFAAELKELISRN | -0.209 |
| HMPREQQENVYLLEKAKRLYEEYLGDQRQTIGHALAQFERVLESQDPAAIRRAQKEFGEFLERYDG | -0.139 |
| HMSGRVPTADDIAVGMKVYVPRLGGTGTVVTEPVRDKVVIQVGSLRLHAEVAELLLPDEHGRIQVPR | -0.127 |
| HMRVLEYTADGSRLDVLLSQDGVLSRSRAAELIKGGAVTVDGRAEGKPSAKPAPGALVRVEVPE | ≥ 0.43 |
| HMDETFTITFDPNGGTLNGSKTKTVSLGDIVYGKLPTASKTGYSFIGWFTEKEGGEQISSATKIIASDLTL | -0.204 |
| HMSKASLFFLFNHKDELYIVDNNHVQDVPKPRELIRRFSTIEQIREHALHLGLPIANDTARE | -0.0573 |
| HMDNLSQMQERILEFIIRSKDQSGYTPSLREIGDEVGLKAVSSVKYQLEQLKDAHYISFDANTARAIRVLI | -0.438 |
| HMSTMVEIPNVVGMTIKEAKEALGNLGLSISKISGSNEDSAIVTEVSPAPGSSVKRDESITLVGQPK | 0.12 |
